One block for each binder: values may come before it.
Key:
[1] = target: T1, human MAdCAM protein (human, UniProt Q13477 19-317, limits assumed); test: Octet
T1 construct: also called soluble monomeric human MAdCAM; recombinant human MAdCAM
T1 sequence (looked up): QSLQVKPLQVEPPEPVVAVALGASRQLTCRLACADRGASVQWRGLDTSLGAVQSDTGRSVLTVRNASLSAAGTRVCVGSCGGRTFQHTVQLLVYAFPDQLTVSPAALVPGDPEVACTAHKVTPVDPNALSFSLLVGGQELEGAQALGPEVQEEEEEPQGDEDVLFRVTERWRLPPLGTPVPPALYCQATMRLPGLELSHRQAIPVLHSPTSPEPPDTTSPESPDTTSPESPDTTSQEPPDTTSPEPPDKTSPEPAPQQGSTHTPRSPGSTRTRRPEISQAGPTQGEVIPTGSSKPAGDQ

[2] = target: T2, recombinant mouse MAdCAM-1 (mouse, UniProt Q61826 22-364, limits assumed); test: Octet
T2 construct: also called mMAdCAM-1
T2 sequence (looked up): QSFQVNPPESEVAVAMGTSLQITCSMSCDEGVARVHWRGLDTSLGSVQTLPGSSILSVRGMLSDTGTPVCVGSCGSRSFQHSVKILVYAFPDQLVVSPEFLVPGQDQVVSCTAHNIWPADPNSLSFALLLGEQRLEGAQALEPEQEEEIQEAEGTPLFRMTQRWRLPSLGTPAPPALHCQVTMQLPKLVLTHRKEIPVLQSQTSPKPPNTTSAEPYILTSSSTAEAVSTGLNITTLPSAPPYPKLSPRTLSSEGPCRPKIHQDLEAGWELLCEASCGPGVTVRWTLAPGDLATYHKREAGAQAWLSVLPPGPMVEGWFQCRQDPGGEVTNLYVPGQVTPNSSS

[3] = target: T3, human MAdCAM expressed on cells (human, UniProt Q13477 19-382); test: cell binding
T3 construct: whole, on cells
T3 sequence (looked up): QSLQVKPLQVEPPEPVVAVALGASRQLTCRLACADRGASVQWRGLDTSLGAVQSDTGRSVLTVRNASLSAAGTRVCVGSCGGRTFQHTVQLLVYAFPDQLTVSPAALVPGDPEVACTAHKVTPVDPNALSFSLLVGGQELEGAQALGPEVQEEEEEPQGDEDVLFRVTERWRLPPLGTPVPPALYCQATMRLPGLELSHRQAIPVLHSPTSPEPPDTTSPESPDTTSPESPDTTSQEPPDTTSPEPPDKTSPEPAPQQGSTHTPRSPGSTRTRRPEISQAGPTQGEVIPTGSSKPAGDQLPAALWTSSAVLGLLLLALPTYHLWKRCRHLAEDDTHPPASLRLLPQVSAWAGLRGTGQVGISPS

[4] = target: T4, mouse MAdCAM expressed on cells (mouse, UniProt Q61826 22-405); test: cell binding
T4 construct: whole, on cells
T4 sequence (looked up): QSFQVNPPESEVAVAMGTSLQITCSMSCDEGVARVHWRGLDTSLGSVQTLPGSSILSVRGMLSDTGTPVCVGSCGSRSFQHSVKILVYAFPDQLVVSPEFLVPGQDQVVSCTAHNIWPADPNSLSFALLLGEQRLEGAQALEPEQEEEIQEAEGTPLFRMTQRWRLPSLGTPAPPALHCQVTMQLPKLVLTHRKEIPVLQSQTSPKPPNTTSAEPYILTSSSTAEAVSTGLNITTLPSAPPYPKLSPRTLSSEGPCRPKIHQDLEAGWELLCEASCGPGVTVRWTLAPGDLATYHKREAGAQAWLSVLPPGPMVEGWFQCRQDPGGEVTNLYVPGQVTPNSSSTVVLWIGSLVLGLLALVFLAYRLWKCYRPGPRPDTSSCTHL

- binding result [1]: binds
- binding result [2]: no binding
- binding result [3]: binds
- binding result [4]: no binding
B1: MAdCAM antibody Table 1 clone 23 (scFv)
scFv: EVQLLESGGGLVQPGGSLRLSCAASGFTFSSYAMHWVRQAPGKGLEWVSGISGSGGSAYYADSVKGRFTISRDNSKNTLYLQMNSLRAEDTAVYYCATSQAPVDYYYYGMDVWGQGTTVTVSSGGGGSGGGGSGGGGSGGGGSDIQMTQSPSSLSASVGDRVTITCRASQSISSWLAWYQQKPGKAPKLLIYAASNLQRGVPSRFSGSGSGTDFTLTISSLQPEDFATYYCQQSYSIPITFGQGTKVEIK

- binding result [1]: binds
- binding result [3]: binds
- binding result [4]: binds
B2: MAdCAM antibody Table 1 clone 61 (scFv)
scFv: EVQLLESGGGLVQPGGSLRLSCAASEFTFSNAWMSWVRQAPGKGLEWVASISSTSAYIDYADSVKGRFTISRDNSKNTLYLQMNSLRAEDTAVYYCAREVVGATTFDYWGQGTLVTVSSGGGGSGGGGSGGGGSGGGGSDIQMTQSPSSLSASVGDRVTITCRASQSISTWLAWYQQKPGKAPKLLIYAASSLQSGVPSRFSGSGSGTDFTLTISSLQPEDFATYYCQQANAFPPTFGQGTRLEIK

- binding result [1]: binds
- binding result [2]: binds
- binding result [3]: binds
- binding result [4]: binds
B3: MAdCAM antibody Table 1 clone 2 (scFv)
scFv: QVQLVQSGAEVKKPGASVKVSCKASGYPFIGYYLHWVRQAPGQGLEWMGIINPSGGSTSYAQKFQGRVTMTRDTSTSTVYMELSSLRSEDTAVYYCAREGRLSYGMDAWGQGTLVTVSSGGGGSGGGGSGGGGSGGGGSDIQMTQSPSSLSASVGDRVTITCRASQSISSYLAWYQQKPGKAPKLLIYGASTLESGVPSRFSGSGSGTDFTLTISSLQPEDFATYYCQQTWGPPFTFGQGTKLEIK

- binding result [1]: binds
- binding result [2]: no binding
- binding result [3]: binds
- binding result [4]: no binding
B4: MAdCAM antibody Table 1 clone 19 (scFv)
scFv: EVQLLESGGGLVQPGGSLRLSCAASGFTFDDYAMHWVRQAPGKGLEWVSGISWNSGSIGYADSVKGRFTISRDNSKNTLYLQMNSLRAEDTAVYYCAKDIVAAGHYYYGMDVWGQGTTVTVSSGGGGSGGGGSGGGGSGGGGSDIQMTQSPSSLSASVGDRVTITCQASQDISNYLNWYQQKPGKAPKLLIYDASNLETGVPSRFSGSGSGTDFTLTISSLQPEDFATYYCQQSYSTPLTFGGGTKVEIK

- binding result [1]: binds
- binding result [2]: binds
- binding result [3]: binds
- binding result [4]: binds
B5: MAdCAM antibody Table 1 clone 63 (scFv)
scFv: EVQLLESGGGLVKPGGSLRLSCAASGFTFDDYAMHWVRQAPGKGLEWVASITSSSAFIDYAASVKGRFTISRDDSKNTLYLQMNSLKTEDTAVYYCARERVDWNSYFDLWGRGTLVTVSSGGGGSGGGGSGGGGSGGGGSEIVMTQSPATLSVSPGERATLSCRASQGISNSYLAWYQQKPGQAPRLLIYGASTRATGIPARFSGSGSGTEFTLTISSLQSEDFAVYYCQQYYTYPPTFGPGTKVDIK

- binding result [1]: binds
- binding result [2]: binds
- binding result [3]: binds
- binding result [4]: binds
B6: MAdCAM antibody Table 1 clone 4 (scFv)
scFv: QVQLVQSGAEVKKPGASVKVSCKASGGTFSSYAISWVRQAPGQGLEWMGSINPSGDTTSYAQKFQGRVTMTRDTSTSTVYMELSSLRSEDTAVYYCAKDKAQWLVGYFDYWGQGTLVTVSSGGGGSGGGGSGGGGSGGGGSDIQMTQSPSSLSASVGDRVTITCQASQDISNSLNWYQQKPGKAPKLLIYAASSLQSGVPSRFSGSGSGTDFTLTISSLQPEDFATYYCQQSYSSVITFGQGTKVEIK

- binding result [1]: binds
- binding result [3]: binds
- binding result [4]: binds
B7: MAdCAM antibody Table 1 clone 65 (scFv)
scFv: QVQLVQSGAEVKKPGASVKVSCKASGYTFTRHWIHWVRQAPGQGLEWMGWINVKTGGAGYAQKFQGRVTMTRDTSTSTVYMELSSLRSEDTAVYYCARESSGWYGTDVWGQGTTVTVSSGGGGSGGGGSGGGGSGGGGSDIQMTQSPSSLSASVGDRATITCRASQSISNYLAWYQQKPGKAPKLLIYAASSLQSGVPSRFSGSGSGTDFTLTISSLQPEDFATYYCQQSNSFPLTFGGGTKVEIK

- binding result [1]: binds
- binding result [3]: binds
- binding result [4]: binds
B8: MAdCAM antibody Table 1 clone 64 (scFv)
scFv: EVQLLESGGGLVKPGGSLRLSCAASGFAFSSHWMHWVRQAPGKGLEWVAGTSGSGESRDYADFVKGRFTISRDDSKNTLYLQMNSLKTEDTAVYYCARETYYYYYMDVWGKGTTVTVSSGGGGSGGGGSGGGGSGGGGSDIQMTQSPSSLSASVGDRVTITCRASQGISNYLAWYQQKPGKAPKLLIYDAANLEGGVPSRFSGSGSGTDFTLTISSLQPEDFATYYCQQSDIFPPTFGQGTKVEIK

- binding result [1]: binds
- binding result [2]: no binding
- binding result [3]: binds
- binding result [4]: no binding
B9: MAdCAM antibody Table 1 clone 20 (scFv)
scFv: EVQLLESGGGLVQPGGSLRLSCAASGFTFDDYAMHWVRQAPGKGLEWVSYIDTSSSHLYYADSVKGRFTISRDNSKNTLYLQMNSLRAEDTAVYYCARDEAAAGYYGMDVWGQGTTVTVSSGGGGSGGGGSGGGGSGGGGSDIQMTQSPSSLSASVGDRVTITCQAGQDISNYLNWYQQKPGKAPKLLIYDASNLETGVPSRFSGSGSGTDFTLTISSLQPEDFATYYCQQTYSTPITFGQGTKLEIK

- binding result [1]: binds
- binding result [2]: binds
- binding result [3]: binds
- binding result [4]: binds
B10: MAdCAM antibody Table 1 clone 59 (scFv)
scFv: EVQLLESGGGLVQPGGSLRLSCAASGFTFSDFWMHWVRQAPGKGLEWISYISGDSGYTNYADSVKGRFTISRDNSKNTLYLQMNSLRAEDTAVYYCARDRPYYYYMDVWGKGTTVTVSSGGGGSGGGGSGGGGSGGGGSDIQMTQSPSSLSASVGDRVTITCRASQSVSRSLAWYQQKPGKAPKLLIYAASSLQSGVPSRFSGSGSGTDFTLTISSLQPEDFATYYCQQYKSYPVTFGQGTKVEIK

- binding result [1]: binds
- binding result [3]: binds
- binding result [4]: binds
B11: MAdCAM antibody Table 1 clone 1 (scFv)
scFv: EVQLLESGGGLVQPGGSLRLSCAASGFTFSSYGMHWVRQAPGKGLEWVAVISDDGSDKYYADSVKGRFTISRDNSKNTLYLQMNSLRAEDTAVYYCTTSKYYYYYGMDVWGQGTTVTVSSGGGGSGGGGSGGGGSGGGGSDIQMTQSPSSLSASVGDRVTITCQASQDISKSLNWYQQKPGKAPKLLIYAASSLQSGVPSRFSGSGSGTDFTLTISSLQPEDFATYYCQQGYSTPLTFGGGTKVEIK

- binding result [1]: binds
- binding result [3]: binds
- binding result [4]: binds
B12: MAdCAM antibody Table 1 clone 66 (scFv)
scFv: EVQLLESGGGLVQPGGSLRLSCAASGFTFSSYWMHWVRQAPGKGLEWVAAISYDGKYKDYEDSVKGRFTISRDNSKNTLYLQMNSLRAEDTAVYYCARENKQWLASFDYWGQGTLVTVSSGGGGSGGGGSGGGGSGGGGSDIQMTQSPSSLSASVGDRVTITCQASQDISNFVNWYQQKPGKAPKLLIYAANLRSGVPSRFSGSGSGTDFTLTISSLQPEDFATYYCQQANSFPVTFGPGTKVDIK
